experiment: soluble on expression in E. coli; label from the status in PepcDB or PDB records

Sequence | soluble on expression in E. coli
MSLKTERILLPVDGSESSYRAAYCAAQAAQLCGAEVLLLHCVDQTEQNGEAPLVDTTLAEDTTTNRHPKQADALGMATANDLIGPVRDILEDHGIRYMERIVEGEPATCIPRVAQNTRCGLIVMGRSGKTPSGRLPVGSVTGRVVGAAHCPVIVAEGHHHHHH | soluble
MSLKTLLFDVDDTLLDFKLAEKKALHALFEEENVPFTSEVESTYHRINQGLWRSFEEGKITKDVLLDTRFGLLFDAFNREVDSVKMGENYREYLSQGHDLLGNSQRILEKLAPHYDLYIVTNGVAKTQYRRLEDSKLMPYFKDIFVSEEVGYQKPMKEYFDFVFERIPNFSREKTMIIGDSLHSDIQGGQQAKIQTVWLNPTSAPATPTIQPNYTIQQLDELLPILGHEGHHHHHH | soluble
MSLKVKAINLYTYKEPFKSPISTPKVKLTHRESLFTEIVTYSGETYYGECNAFLTNWYDKETILTVVNRLRQWIPQVLHKDMTSFDSWLPYLNQMNDAPAARSMVVMAVYQMYNDLHDFEVQYGATVSGLTNSQIETLLETRPKRIKLKWSTSLIKDLETIRLLNFDCDIAIDANESLTKPSFLQLANVNTSDIIYIEEPFKILEDLNDIDMSIFPRIAIDEKALSIEKIQSIIQQYPIQVVVLKPFRLGGIDRMLNAMKILKEKNIRFVVGGMYEFGLSRYFTAMLAKEGSYPGDITPHGYYFSNDIVETSGILKGGMIYFTPPKVKRSLLNKVEGHHHHHH | not soluble
MSLKVTIKDIATICGVSAGTVDRALNNRTGISEKTREKILKTAKELNYRPDYTARSLVMGKTMTIGVVLFDLYNRSFAQLLNAIELKARELGYFIYITLSDKNPENELNCIEHLVNRKVDGIILFTVNKGEQFEANLSKWGIPIITIFNYVSEKWEYIGIQERQAMKEAVDYIASKRYKKFIYISPPLTYLGKNNIYTQEERLNGFYDGLKSNGITSKPLIIKNSEYIKELDNITFSQDGKVAIVCATDLYALEVMNYLKEKGFNIPEQVGVMGFDDIDMLKYITPRLTTVKYPIDEIGRRAIESMVNKINHGHFISTPLLNYQIIKGESIEGHHHHHH | soluble
MSLKVWITGAGGMMGSHLAEMLLAAGHDVYATYCRPTIDPSDLQFNGAEVDITDWCSVYDSIATFRPDAVFHLAAQSYPAVSWARPVETLTTNMVGTAIVFEALRRVRPHAKIIVAGSSAEYGFVDPSEVPINERRELRPLHPYGVSKAATDMLAYQYHKSYGMHTVVARIFNCTGPRKVGDALSDFVRRCTWLEHHPEQSAIRVGNLKTKRTIVDVRDLNRALMLMLDKGEAGADYNVGGSIAYEMGDVLKQVIAACKRDDIVPEVDPALLRPTDEKIIYGDCSKLAAITGWQQEICLTQTIADMFDYWRSKSESAEGHHHHHH | soluble
MSLKYNDNFQTILRHGVEKQVALLDADIFMENGQDDVELQMRQFRNLVNSKVDAIVVAMVNGKSAAEMMRLANEAKVPLVFVNRNPEPAKWPALTAFVGSDELESGTLQMEELARRAGYKGNVVILVGDPSNKSSVMRTEDVEKVVAKYPNMKVVQKKIGNWERSQAATIVIDWVKQGVDFSIVAANNDEMAIGAIMGLEKAGKNARDYLVGGIDGTPDGLKLMAEGKMAVSVFQDAVGQANGAVDAALSMARGETLASPVIWVPFKLITPENRQQFEEGHHHHHH | soluble
MSLKYYIGLACTGHENALAIVNPDGEIVFAEATERFLQNKRAVNTPPDDPLRIPRLLKQYCSDCDAIVVAKTWSREAPQKMRTDAAHILKALAGTDARTDRDWVARVAFHAGLGDKLIEPNYRLAGNGIERYCSLQGLEHSVRSYEHHLTHAAYACHTSPFDDAVCAVFDGYGEGVHSSYFHYRNGKVEPIRRARSAKGQYGSLASLGLYYGYTICALLGLDIVNGEEWKVMGLAPYGQLNPAFLDVLRRHIYVDGLDLVMDGNAAGTYRELQAFARRPGQSYESVADIAYTAQHYFSELMLEMLAGLRQLGLSDRLVLTGGCALNSTFNGEVIPRSGFAQLYVPPAPSDDGNAVGAALLAYAEDGGAMSRPAFHSPYLGSAIDDRELAPFLKNGAMLGQVPVTPGELCDYVAQELADGKVIGWIQGSAEFGPRSLGNRSILADPRRASMKERINAIVKFREGFRPFAPSILDEFGDRYFEDYSATPYMEKTLKIREAYREAIPAVCHVDHTGRLQTVRRDWNPRFHALLSAFHARTGTPVLLNTSLNVMGKPIVHSAADAFTVFLSTGLDLLVINDHVFSKREGHHHHHH | soluble
MSLLASLGGLVSCAAKVHFKEEGNAMNELIANHDFDFRQLVTAAEGQPVTDTFQIAKAFGKRHADVLRALKNCHCSEDFRRAHFCVSEKINNLGIFDKKQIYYRMDFSGFVMLVMGFNGAKADAVKEAYINAFNWMSAELRKYSESYEAERNAIMLEYMKEKDVASMSGRLLNRWGKIKKPQLLARIGRLEQHGQTVIPGLTNEGHHHHHH | not soluble
MSLLDFEKPLFEIRNKIESLKESQDKNDVDLQEEIDMLEASLERETKKIYTNLKPWDRVQIARLQERPTTLDYIPYIFDSFMELHGDRNFRDDPAMIGGIGFLNGRAVTVIGQQRGKDTKDNIYRNFGMAHPEGYRKALRLMKQAEKFNRPIFTFIDTKGAYPGKAAEERGQSESIATNLIEMASLKVPVIAIVIGEGGSGGALGIGIANKVLMLENSTYSVISPEGAAALLWKDSNLAKIAAETMKITAHDIKQLGIIDDVISEPLGGAHKDVEQQALAIKSAFVAQLDSLESLSRDEIANDRFEKFRNIGSYIEEGHHHHHH | not soluble
MSLLDIERVREQQRPLPISKIRAQQSHTSFQGVFEEIAGHKSEKTVYAILETLEKDGERLAKHRTAAELHAFKRSVRQCVSHLLESLKVETASSAASGQVRQYKLVKEIDKGLVELTNAVFDQSKSELDLLNKIGELQGLIIQLYLEGHHHHHH | soluble
MSLLEKINSSTCTLRFKNDWLKIFTCPVPSSDFLSFVGVATIDAPQHAVLSLLYDIESATEWVWKTREMRVLQELADDNEGRVVYQVVSAPWPVSDREIISRSTAYKDPETGEVFIKIESLPDFIPETSNCVRVRKLEGAWNILPLSENSCRVVFRLHIEPAGEIPSWLANIAVIDTPYHTLNNMRDMVKREKYKNPVGAPLKESTEGIIRNYNDFITELEHHHHHH | soluble
MSLLEQLDKNIAASGGLIVSCQPVPGSPLDKPEIVAAMALAAEQAGAVAVRIEGIDNLRMTRSLVSVPIIGIIKRDLDESPVRITPFLDDVDALAQAGAAIIAVDGTARQRPVAVEALLARIHHHHLLAMADCSSVDDGLACQRLGADIIGTTMSGYTTPDTPEEPDLPLVKALHDAGCRVIAEGRYNSPALAAEAIRYGAWAVTVGSAITRLEHICGWYNDALKKAAS | not soluble
MSLLFSNTYRIESNAPLADKLRPKNLDDFFGQESILGHDSLLRNAILNDKVGNMIFSGPPGVGKTTLIEIISSNTRSSLIKLNAVLSSIKELRTEIANAKERLRSSNRKTILFIDEVHRFTSVQQDALLPSIENGTITFIGATTENPFFAVNKALISRARIFSLLPLNKNDLKKIIDKVIKYYSCLKDSKVVEIKEEAMNHLIKFSGGDARNLINALELGISITKENKENLVVIDLAIAEDSIQKKNIVYDKNGQNHFDVISAFIKSIRGSDPDATLYWLANMVEAGEDPNFIFRRLLISACEDIGLADPNAIVVVQSCCDAFDRVGFPEGLFFLSQASLYLAISPKSNSTKSIFKAMEAIKATNVSLVPNHLKNNASNYLNPHNYQGKWLQQEYLPTDLQGIKFWKPKDSGWEKNKYEDLPKKQKSEGHHHHHH | not soluble
MSLLKMYADKRGLKDIKSNMVMREFEEVFEKFKDWTEKIKQKYPNPDEILNLEKEEKWDFSDLFGEFLGDYRTVKSYHEFDKDNPYLPSDEFNKYFAAFSQIQEEIRKEKAEKKALEVQEEDLSNEVRKEPQIFSWEYGEGIQANLDYIFHLIKDLYNCDNEQDRQKVLDKIKTAIRTNPEIQVNEDILNEFIEDLGKSFEKEKLEEVWKTEGKLRECLKDFCKKKEESNKKKIINDFLVKGVFLVEWVADKQLNTAKKKGEYSPSWSDTEKLIWKEKSTNLPTMTEKDEDGNFKWRKLITDISEAFKNEGHHHHHH | soluble
MSLLPSQSPAIFTVSRLNQTVRLLLEHEMGQVWISGEISNFTQPASGHWYFTLKDDTAQVRCAMFRNSSRRVTFRPQHGQQVLVRANITLYEPRGDYQIIVESMQPAGEGLLQQKYEQLKAKLQAEGLFDQQYKKPLPSPAHCVGVITSKTGAALHDILHVLKRRDPSLPVIIYPAAVQGDDAPGQIVRAIELANQRNECDVLIVGRGGGSLEDLWSFNDERVARAIFTSRIPVVSAVGHETDVTIADFVADLRAPTPSAAAEVVSRNQQELLRQVQSTRQRLEMAMDYYLANRTRRFTQIHHRLQQQHPQLRLARQQTMLERLQKRMSFALENQLKRTGQQQQRLTQRLNQQNPQPKIHRAQTRIQQLEYRLAETLRAQLSATRERFGNAVTHLEAVSPLSTLARGYSVTTATDGNVLKKVKQVKAGEMLTTRLEDGWIESEVKNIQPVKKSRKKVHEGHHHHHH | not soluble
MSLLVMKCSKCSAEAIYYAKYNGLYLCRDHFNEMIEGRVKKEIRKQVEFHGDDVTISVALSGGKDSSVTLFLLHKILGNRKNMKIKAFTVDEGIDGYRPSGLESAKRLCTSLGIDHETISFYDSYGLTLDSIVKTNPVKIPCAYCGPLRRKLINEMADKQDADYVALGLNLDDYSQSILMNVAKGDFDRFIRMSPQTDRKVGLVRRIAPLRTILEKEVVLYAVTNDIPFDSSWCPYYSRAQRNVFREVVNKLSEENPSTKFAILKFFDRVRENITTGHEEVKLKRCKICGAPTERDVCTACSSLQEVNEMMAEHEGHHHHHH | soluble
MSLMLKKNDIIQVAISDLSHEGAGVAKHDGFVFFVDNALPEEVIDMRVLKVNKNSGFGKVEAYHYLSSARNADVNLTYLRTGIADLGHLTYEDQLTFKKKQVQDSLYKIAGISDVTVESTIGMTEPLAYRNKAQVPVRRVNGQLETGFFRKHSHDLIPISDYYIQDKEIDRLINFTRDLLRRFDIKPYDETEQTGLLRNIVVRRGHYSGEMMLVLVTTRPKVFRVDQVIEKIVEAFPAVVSIIQNINDKNTNAIFGKDFKTLYGKDTITDSMLGNNYAISAQSFYQVNTVMAEKLYQTAIAFSDLSKDDIVIDAYSGIGTIGLSFAKTVKAVYGVEVIEAAVRDAQQNAALNGITNAYFVADTAEHAMATWAKDGIKPSVILVDPPRKGLTESFIQASVAMGPQKITYVSCNPATMARDIKRYQELGYKLAKVQPVDLFPQTHHVECVVLLIKEEGHHHHHH | soluble
MSLNARARALRHSRSGTIGLIVPDVNNAVFADMFSGVQMAASGHSTDVLLGQIDAPPRGTQQLSRLVSEGRVDGVLLQRREDFDDDMLAAVLEGVPAVTINSRVPGRVGSVILDDQKGGGIATEHLITLGHSRIAFISGTAIHDTAQRRKEGYLETLASAGLRSEAAWVVDAGWEADAGSAALNTLYRGANLGKPDGPTAVVVASVNAAVGALSTALRLGLRVPEDLSIVGINTTWVSDTVYPALTTVRLPLQRLGEVAADVLMEHLGGRALTDTVVTQPTPELLVRETTAPPTREGHHHHHH | soluble
MSLNDGRLEIFQEGKPGRRIDEDQVFAAVLDALTKPAEQRTVTVAFREIPPPITAANLDQLGITTLIGVGRSDFTGSAAYRVTNIQAGMRLLHGVLIAPGEEFSFNQTIGRIDRSNGFVEGYAIIQNRTQLEWGGGICQDSTTMFRAAFWAGLPITERWGHSFYISWYDRYAFGPYGDGPGMDATIFTGGPDLKFLNDTGGWLLIQTLVDTHRHLAEVRLYGPDTGRKVLLEGPIITNRTPPPEEPVYVASPDRPVGQPRQSDTARGGMDILFTRIVLGPDGKEIERRQFVTRFKPWPNIFEYNPADEGHHHHHH | soluble

— the DeepSol protein solubility set
